Experimental data taken from US20050262592.

What was measured:
[1] = molecular target: T1, streptokinase, P00779
T1 chain: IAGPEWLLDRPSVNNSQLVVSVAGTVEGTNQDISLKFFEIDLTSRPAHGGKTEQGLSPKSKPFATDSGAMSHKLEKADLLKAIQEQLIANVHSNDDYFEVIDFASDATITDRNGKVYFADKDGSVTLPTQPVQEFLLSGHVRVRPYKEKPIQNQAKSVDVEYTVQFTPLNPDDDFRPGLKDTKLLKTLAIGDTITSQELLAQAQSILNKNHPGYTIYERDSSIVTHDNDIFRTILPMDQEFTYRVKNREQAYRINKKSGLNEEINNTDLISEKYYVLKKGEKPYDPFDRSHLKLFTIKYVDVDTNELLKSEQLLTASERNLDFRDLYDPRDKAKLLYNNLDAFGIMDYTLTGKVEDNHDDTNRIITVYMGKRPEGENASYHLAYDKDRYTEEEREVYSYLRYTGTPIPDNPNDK

[2] = molecular target: T2, duckweed-produced human microplasminogen
T2 chain: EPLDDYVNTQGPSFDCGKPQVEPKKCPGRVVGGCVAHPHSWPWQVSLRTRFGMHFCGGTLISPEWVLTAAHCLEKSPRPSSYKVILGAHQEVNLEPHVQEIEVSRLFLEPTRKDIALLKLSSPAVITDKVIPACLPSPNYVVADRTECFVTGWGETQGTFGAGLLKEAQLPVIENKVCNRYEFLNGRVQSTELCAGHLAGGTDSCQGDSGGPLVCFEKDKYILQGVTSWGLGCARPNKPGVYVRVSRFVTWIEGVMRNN

B1: duckweed-produced human microplasminogen (protein)
chain: T2 chain
activity following activation by streptokinase (chromogenic substrate assay as for plasminogen) [1]: The duckweed-produced microplasminogen showed some level of activity in the absence of streptokinase, and a significant increase in activity following activation by streptokinase

B2: duckweed-produced human plasminogen (protein)
chain: KVYLSECKTGNGKNYRGTMSKTKNGITCQKWSSTSPHRPRFSPATHPSEGLEENYCRNPDNDPQGPWCYTTDPEKRYDYCDILECEEECMHCSGENYDGKISKTMSGLECQAWDSQSPHAHGYIPSKFPNKNLKKNYCRNPDRELRPWCFTTDPNKRWELCDIPRCTTPPPSSGPTYQCLKGTGENYRGNVAVTVSGHTCQHWSAQTPHTHNRTPENFPCKNLDENYCRNPDGKRAPWCHTTNSQVRWEYCKIPSCDSSPVSTEQLAPTAPPELTPVVQDCYHGDGQSYRGTSSTTTTGKKCQSWSSMTPHRHQKTPENYPNAGLTMNYCRNPDADKGPWCFTTDPSVRWEYCNLKKCSGTEASVVAPPPVVLLPDVETPSEEDCMFGNGKGYRGKRATTVTGTPCQDWAAQEPHRHSIFTPETNPRAGLEKNYCRNPDGDVGGPWCYTTNPRKLYDYCDVPQCAAPSFDCGKPQVEPKKCPGRVVGGCVAHPHSWPWQVSLRTRFGMHFCGGTLISPEWVLTAAHCLEKSPRPSSYKVILGAHQEVNLEPHVQEIEVSRLFLEPTRKDIALLKLSSPAVITDKVIPACLPSPNYVVADRTECFVTGWGETQGTFGAGLLKEAQLPVIENKVCNRYEFLNGRVQSTELCAGHLAGGTDSCQGDSGGPLVCFEKDKYILQGVTSWGLGCARPNKPGVYVRVSRFVTWIEGVMRNN
cleavage of the chromogenic substrate Glu-Phe-Lys-pNA at 405 nm [1]: For each of the seven transgenic lines tested, the activity level was closely correlated with the protein expression levels as determined by ELISA | streptokinase activity assay (cleavage of a chromogenic substrate, Coamatic plasminogen kit) [1]: Activation with streptokinase also produced activated plasminogen

B3: tissue plasminogen activator (protein)
chain: SYQVICRDEKTQMIYQQHQSWLRPVLRSNRVEYCWCNSGRAQCHSVPVKSCSEPRCFNGGTCQQALYFSDFVCQCPEGFAGKCCEIDTRATCYEDQGISYRGTWSTAESGAECTNWNSSALAQKPYSGRRPDAIRLGLGNHNYCRNPDRDSKPWCYVFKAGKYSSEFCSTPACSEGNSDCYFGNGSAYRGTHSLTESGASCLPWNSMILIGKVYTAQNPSAQALGLGKHNYCRNPDGDAKPWCHVLKNRRLTWEYCDVPSCSTCGLRQYSQPQFRIKGGLFADIASHPWQAAIFAKHRRSPGERFLCGGILISSCWILSAAHCFQERFPPHHLTVILGRTYRVVPGEEEQKFEVEKYIVHKEFDDDTYDNDIALLQLKSDSSRCAQESSVVRTVCLPPADLQLPDWTECELSGYGKHEALSPFYSERLKEAHVRLYPSSRCTSQHLLNRTVTDNMLCAGDTRSGGPQANLHDACQGDSGGPLVCLNDGRMTLVGIISWGLGCGQKDVPGVYTKVTNYLDWIRDNMRP
Western blot: production of the B chain of plasmin [2]: Western blot analysis confirmed the production of the B chain of plasmin following activation of duckweed-produced microplasminogen with either urokinase or tPA
